Test results taken from patent US20240424101A1 (CORREGENE BIOTECHNOLOGY, published 2024).

T1: HPV16 E7 peptide on HLA-A*02:01 (human)
T1 peptide: YMLDLQPET

B1: CRTE7A2 TCR (variable regions fused to murine constant regions) (TCR, V domains shown)
V domain 1: RKEVEQDPGPFNVPEGATVAFNCTYSNSASQSFFWYRQDCRKEPKLLMSVYSSGNEDGRFTAQLNRASQYISLLIRDSKLSDSATYLCAVISAGTALIFGKGTTLSVSS
V domain 2: DAGVTQSPTHLIKTRGQQVTLRCSPKSGHDTVSWYQQALGQGPQFIFQYYEEEERQRGNFPDRFSGHQFPNYSSELNVNALLLGDSALYLCASSLGWRGGLYTEAFFGQGTRLTVVE
B2: CRTE7A2 (TCR, V domains shown)
Valpha: B1 V domain 1
Vbeta: DAGVTQSPTHLIKTRGQQVTLRCSPKSGHDTVSWYQQALGQGPQFIFQYYEEEERQRGNFPDRFSGHQFPNYSSELNVNALLLGDSALYLCASSLGWRGGLYTEAFFGQGTRLTVV

Legend:
[1] = target: HPV16 E7 11-19 epitope (…) presented by HLA-A*02:01 (HPV16; human); assay: cell-based or functional assay
[2] = target: T1, HPV16 E7 peptide on HLA-A*02:01; assay: multimer staining

Binder	activation level of the NFAT-GFP reporter gene in Jurkat cells co-incubated with peptide-loaded T2 cells (EC50) [1] [nM]	binding result [2]
B1	31	
B2		recognises
